Holding throughout (test): BLI
(BLI is a label-free optical method that tracks binding on a fibre tip over time.)

The target of assay [1] is human ACE2 polymorphism K26R (rs4646116) (human) (UniProt Q9BYF1).
For assay [2], the target named is human ACE2 polymorphism S19P (rs73635825) (human) (UniProt Q9BYF1).
Assay [3] concerns the target truncated human ACE2 (residues 19-613 with a C-terminal AviTag and 6xHis-tag), biotinylated (human) (UniProt Q9BYF1).
The target of assay [4] is human ACE2 polymorphism E35K (rs1348114695) (human) (UniProt Q9BYF1).

For the substance “SARS-CoV-2 Omicron BA.2 RBD (from UniProt P0DTC2) (domain or fragment)”, the Kd (commonly the constant that tells how readily two partners part at equilibrium) stood at 5.18 nM in assay [1] and 4.97 nM in assay [2]. Also, in assay [3], the t1/2 amounted to 2.7 min. “SARS-CoV-2 RBD of Beta (B.1.351) (from UniProt P0DTC2) (domain or fragment)”: the t1/2 in assay [3] was determined as 165. As for “SARS-CoV-2 RBD of Delta (B.1.617.2) (from UniProt P0DTC2) (domain or fragment)”, the Kd in assay [4] is 43.3 nM. This substance showed a t1/2 in assay [3] of 2.4 min. The substance “SARS-CoV-2 ancestral receptor-binding domain (RBD), recombinant (from UniProt P0DTC2) (domain or fragment)” registered a Kd in assay [2] of 14.4 nM.

Source of the values: article PMC10372118.
